Our source for the TCR-induced tyrosine phosphorylation of ITK-BTK(SH3) in transfected Jurkat cells (anti-ITK IP, antiphosphotyrosine blot), reduction in signal intensity against wild type ITK and reduction of the ITK-SLP-76 association against wild-type ITK values is paper PMC3357558.

Test [1] deals with ITK-BTK((SH3)): ITK whose SH3 domain is replaced with the SH3 domain of BTK, fluorescent protein chimera (UniProt P35991).
The target is the same in test [2]. The test can be described thus: co-IP; Jurkat (JTag) cells transfected with GFP-ITK constructs, stimulated or not with 5 ug/mL anti-CD3e OKT3 cross-linked with rabbit anti-mouse IgG for 1 minute at 37°C, lysed; FP-ITK immunoprecipitated with anti-GFP IgG; SLP-76 and ITK immunoblotted; association index by densitometry against the nonstimulated lane. For orientation: In western blotting, separated proteins are transferred to a membrane and probed.

Chain of UniProt P35991 (P35991 whole entry, stated change not applied, the tested form may be a part): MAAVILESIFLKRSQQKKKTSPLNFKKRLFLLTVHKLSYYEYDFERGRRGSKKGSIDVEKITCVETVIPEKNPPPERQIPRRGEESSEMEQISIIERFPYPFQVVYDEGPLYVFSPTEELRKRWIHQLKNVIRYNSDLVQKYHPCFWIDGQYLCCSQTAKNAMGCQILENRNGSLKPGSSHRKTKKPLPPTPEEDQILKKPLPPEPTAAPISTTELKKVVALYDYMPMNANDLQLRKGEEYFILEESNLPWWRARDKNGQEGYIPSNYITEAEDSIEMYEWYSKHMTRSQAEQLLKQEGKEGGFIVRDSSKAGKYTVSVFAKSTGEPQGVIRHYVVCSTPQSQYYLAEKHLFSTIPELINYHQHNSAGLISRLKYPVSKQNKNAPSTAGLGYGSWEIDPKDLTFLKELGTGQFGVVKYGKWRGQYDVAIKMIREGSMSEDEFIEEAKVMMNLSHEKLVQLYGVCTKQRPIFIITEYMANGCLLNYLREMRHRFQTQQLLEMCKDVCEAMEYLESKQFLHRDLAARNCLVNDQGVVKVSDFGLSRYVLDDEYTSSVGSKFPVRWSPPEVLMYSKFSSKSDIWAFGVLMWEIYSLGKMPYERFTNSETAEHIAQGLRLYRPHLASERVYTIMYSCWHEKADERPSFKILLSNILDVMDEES

B1: SLP-76 (natural protein)
chain: MALRNVPFRSEVLGWDPDSLADYFKKLNYKDCEKAVKKYHIDGARFLNLTENDIQKFPKLRVPILSKLSQEINKNEERRSIFTRKPQVPRFPEETESHEEDNGGWSSFEEDDYESPNDDQDGEDDGDYESPNEEEEAPVEDDADYEPPPSNDEEALQNSILPAKPFPNSNSMYIDRPPSGKTPQQPPVPPQRPMAALPPPPAGRNHSPLPPPQTNHEEPSRSRNHKTAKLPAPSIDRSTKPPLDRSLAPFDREPFTLGKKPPFSDKPSIPAGRSLGEHLPKIQKPPLPPTTERHERSSPLPGKKPPVPKHGWGPDRRENDEDDVHQRPLPQPALLPMSSNTFPSRSTKPSPMNPLPSSHMPGAFSESNSSFPQSASLPPYFSQGPSNRPPIRAEGRNFPLPLPNKPRPPSPAEEENSLNEEWYVSYITRPEAEAALRKINQDGTFLVRDSSKKTTTNPYVLMVLYKDKVYNIQIRYQKESQVYLLGTGLRGKEDFLSVSDIIDYFRKMPLLLIDGKNRGSRYQCTLTHAAGYP
As for B1, in test [1], the TCR-induced tyrosine phosphorylation of ITK-BTK(SH3) in transfected Jurkat cells (anti-ITK IP, antiphosphotyrosine blot), reduction in signal intensity against wild type ITK was 15%. In addition, in test [2], the reduction of the ITK-SLP-76 association against wild-type ITK came to 32%.
